Measurements reported in patent US20260049138A1 (Chugai, published 2026).
Changes are numbered by the printed parent chain. Numbers in names are those of the source.

Key:
CD3ε homodimer protein [1] = target: T1, CD3ε homodimer protein (human, UniProt P07766 23-126, limits assumed); assay: SPR
T1 construct: also called CD3 (CD3ε)
T1 sequence (P07766 23-126 limits assumed): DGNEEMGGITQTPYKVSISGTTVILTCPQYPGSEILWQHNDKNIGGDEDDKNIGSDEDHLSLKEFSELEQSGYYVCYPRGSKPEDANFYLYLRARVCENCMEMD
Description: Each one-amino acid altered form constructed, expressed, and purified in the paragraph (6-2) was evaluated using Biacore T200 (GE Healthcare Japan Corp.). An appropriate amount of CD3ε homodimer protein was immobilized onto Sensor chip CM4 (GE Healthcare Japan Corp.) by the amine coupling method. Then, the antibody having an appropriate concentration was injected thereto as an analyte and allowed to interact with the CD3ε homodimer protein on the sensor chip. Then, the sensor chip was regenerated by the injection of 10 mmol/L glycine-HCl (pH 1.5). The assay was conducted at 25° C., and HBS-EP+ (GE Healthcare Japan Corp.) was used as a running buffer. […] Each parameter was calculated using Biacore T200 Evaluation Software (GE Healthcare Japan Corp.).
Specifically, when the amount of the GLS3000-containing antibody bound was defined as X and the amount of the L chain one-amino acid altered form bound was defined as Y, a value of Z (ratio of amounts bound)=Y/X was used.

human CD154 = target: T2, human CD154 (human, UniProt P29965 113-261, limits assumed, biotin-labeled); assay: ECL competition, CD3ε[+]: CD3ε homodimer added as competitor [2]
T2 construct: also called biotin-labeled human CD154; biotinylated human CD154
T2 sequence (looked up): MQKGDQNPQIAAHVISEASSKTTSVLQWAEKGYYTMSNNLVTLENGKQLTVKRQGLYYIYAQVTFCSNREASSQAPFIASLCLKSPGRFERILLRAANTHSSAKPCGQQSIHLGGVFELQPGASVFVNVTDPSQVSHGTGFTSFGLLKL
Description: Next, each obtained IgG was evaluated for its binding to CD3 and human CD154 at the same time by the competition method (electrochemiluminescence method (ECL method)).
A TBST solution containing 0.5% BSA (referred to as a blocking solution; the TBST solution was TBS (manufactured by Takara Bio Inc.) supplemented with 0.1% Tween 20) was added at 150 μL/well to streptavidin plate (MSD K.K.), and the plate was incubated at room temperature for 1 hour or longer. After removal of the blocking solution, each well was washed three times with 250 μL of a TBST solution. The antibody-antigen complex solution was added thereto at 50 μL/well, and the plate was incubated at room temperature for 1 hour so that the biotinylated antigen-antibody-detection sulfo-tag antibody complex solution bound via the biotinylated antigen to the streptavidin plate. After removal of the antibody-antigen complex solution, each well was washed three times with a TBST solution, and a solution of 4×READ buffer (MSD K.K.) diluted 2-fold with water was added thereto at 150 μL/well, followed by the detection of the luminescence signal of the sulfo-tag using Sector Imager 2400 (MSD K.K.).

CD3ε homodimer protein [2] = target: T3, CD3ε homodimer protein (human, UniProt P07766 23-126, limits assumed); assay: SPR (Biacore T200), one-arm antibody as analyte over immobilised CD3ε homodimer protein, single-cycle kinetics
T3 construct: also called human CD3ε homodimer protein
T3 sequence (P07766 23-126 limits assumed): as the sequence (P07766 23-126 limits assumed) above

CD3ε homodimer protein [3] = target: CD3ε homodimer protein (human, UniProt P07766 23-126, limits assumed); assay: SPR Biacore T200, CD3e homodimer on chip
Target sequence in this assay (P07766 23-126 limits assumed): as the sequence (P07766 23-126 limits assumed) above
Description: An appropriate amount of CD3ε homodimer protein was immobilized onto Sensor chip CM4 (GE Healthcare Japan Corp.) by the amine coupling method. Then, the antibody having an appropriate concentration was injected thereto as an analyte and allowed to interact with the CD3ε homodimer protein on the sensor chip. Then, the sensor chip was regenerated by the injection of 10 mmol/L glycine-HCl (pH 1.5). The assay was conducted at 25° C., and HBS-EP+ (GE Healthcare Japan Corp.) was used as a running buffer. […] Each parameter was calculated using Biacore T200 Evaluation Software (GE Healthcare Japan Corp.).

B1: GLS3000 L33P (antibody, name in Kabat numbering, V domains shown)
VH: QVQLVESGGGVVQPGRSLRLSCAASGFTFSNAWMHWVRQAPGKGLEWVAQIKAKSNNYATYYAESVKGRFTISRDDSKNSLYLQMNSLKTEDTAVYYCRYVHYGAYYGVDAWGQGTTVTVSS
VL: DIVMTQSPLSLPVTPGEPASISCRSSQSLVHSNRNTYPHWYQQKPGQAPRLLIYKVSNRFSGVPDRFSGSGSGTDFTLKISRVEAEDVGVYYCGQGTQVPYTFGQGTKLEIK
notes: one-arm, rest as m2
KD ratio to GLS3000 (CD3ε homodimer protein [1]): 32.7

B2: 154R5A02#1 one-arm antibody (antibody, human IgG1, kappa, L234A L235A, N297A)
heavy: QVQLVESGGGLVQPGRSLRLSCAASGFTFSNAWMHWVRQAPGKGLEWVAQIKDRGNNYNTYYAPSVKGRFTISRDDSKNSIYLQMNSLKTEDTAVYYCRYVHYGSYFFSGSSFGVDIWGQGTTVTVSSASTKGPSVFPLAPSSKSTSGGTAALGCLVKDYFPEPVTVSWNSGALTSGVHTFPAVLQSSGLYSLSSVVTVPSSSLGTQTYICNVNHKPSNTKVDKKVEPKSCDKTHTCPPCPAPEAAGGPSVFLFPPKPKDTLMISRTPEVTCVVVDVSHEDPEVKFNWYVDGVEVHNAKTKPREEQYASTYRVVSVLTVLHQDWLNGKEYKCKVSNKALPAPIEKTISKAKGQPREPQVYTLPPSRCELTKNQVSLSCAVKGFYPSDIAVEWESNGQPENNYKTTPPVLDSDGSFFLVSKLTVDKSRWQQGNVFSCSVMHEALHNHYTQKSLSLSPDYKDDDDK
chain: EPKSSDKTHTCPPCPAPELLGGPSVFLFPPKPKDTLMISRTPEVTCVVVDVSHEDPEVKFNWYVDGVEVHNAKTKPREEQYNSTYRVVSVLTVLHQDWLNGKEYKCKVSNKALPAPIEKTISKAKGQPREPQVCTLPPSRDELTKNQVSLWCLVKGFYPSDIAVEWESNGQPENNYKTTPPVLDSDGSFFLYSKLTVDKSRWQQGNVFSCSVMHEALHNRYTQKSLSLSP
light: DIVMTQSPLSLPVTPGEPASISCRSSQSLVHSNRNTYLHWYQQKPGQAPRLLIYKVSNRFSGVPDRFSGSGSGTDFTLKISRVEAEDVGVYYCGQGTQVPYTFGQGTKLEIKRTVAAPSVFIFPPSDEQLKSGTASVVCLLNNFYPREAKVQWKVDNALQSGNSQESVTEQDSKDSTYSLSSTLTLSKADYEKHKVYACEVTHQGLSSPVTKSFNRGEC
notes: As m48
relative ECL reaction (to no antigen coating) (human CD154): 10

B3: One-arm antibody: NNS6f54 (CE115HA340 with FEWVGW inserted between Kabat positions 99 and 100) / Kn010G3 / GLS3000-kappa (antibody)
chain 1: QVQLVESGGGLVQPGRSLRLSCAASGFTFSNAWMHWVRQAPGKGLEWVAQIKDKSNNYATYYAESVKGRFTISRDDSKNSIYLQMNSLKTEDTAVYYCRYVHYAAFEWVGWYYGVDAWGQGTTVTVSSASTKGPSVFPLAPSSKSTSGGTAALGCLVKDYFPEPVTVSWNSGALTSGVHTFPAVLQSSGLYSLSSVVTVPSSSLGTQTYICNVNHKPSNTKVDKKVEPKSCDKTHTCPPCPAPEAAGGPSVFLFPPKPKDTLMISRTPEVTCVVVDVSHEDPEVKFNWYVDGVEVHNAKTKPREEQYASTYRVVSVLTVLHQDWLNGKEYKCKVSNKALPAPIEKTISKAKGQPREPQVYTLPPSRCELTKNQVSLSCAVKGFYPSDIAVEWESNGQPENNYKTTPPVLDSDGSFFLVSKLTVDKSRWQQGNVFSCSVMHEALHNHYTQKSLSLSPDYKDDDDK
chain 2: B2 chain
chain 3: B2 light
Kd (CD3ε homodimer protein [2]): 29 nM

B4: One-arm antibody: NNS6f51 (CE115HA340 with GFLVLW inserted between Kabat positions 99 and 100) / Kn010G3 / GLS3000-kappa (antibody)
chain 1: B3 chain 1 with F106G, E107F, W108L, G110L
chain 2: B2 chain
chain 3: B2 light
Kd (CD3ε homodimer protein [2]): 31 nM

B5: One-arm antibody: NNS6f47 (CE115HA340 with HFMWWG inserted between Kabat positions 99 and 100) / Kn010G3 / GLS3000-kappa (antibody)
chain 1: B3 chain 1 with F106H, E107F, W108M, V109W, G110W, W111G
chain 2: B2 chain
chain 3: B2 light
Kd (CD3ε homodimer protein [2]): 31 nM

B6: CE115HA000 / GLS3000 one-arm antibody (unaltered) (antibody, human IgG1, kappa, L234A L235A, N297A)
heavy: QVQLVESGGGVVQPGRSLRLSCAASGFTFSNAWMHWVRQAPGKGLEWVAQIKAKSNNYATYYAESVKGRFTISRDDSKNSLYLQMNSLKTEDTAVYYCRYVHYGAYYGVDAWGQGTTVTVSSASTKGPSVFPLAPSSKSTSGGTAALGCLVKDYFPEPVTVSWNSGALTSGVHTFPAVLQSSGLYSLSSVVTVPSSSLGTQTYICNVNHKPSNTKVDKKVEPKSCDKTHTCPPCPAPEAAGGPSVFLFPPKPKDTLMISRTPEVTCVVVDVSHEDPEVKFNWYVDGVEVHNAKTKPREEQYASTYRVVSVLTVLHQDWLNGKEYKCKVSNKALPAPIEKTISKAKGQPREPQVYTLPPSRCELTKNQVSLSCAVKGFYPSDIAVEWESNGQPENNYKTTPPVLDSDGSFFLVSKLTVDKSRWQQGNVFSCSVMHEALHNHYTQKSLSLSPDYKDDDDK
chain: B2 chain
light: B2 light
notes: All L chain altered forms m3-m332 have this format; for them only VH and VL are written out; also called GLS3000-containing antibody
KD ratio to GLS3000 (CD3ε homodimer protein [1]): 0.98

B7: 154R5F08#1 one-arm antibody (antibody, human IgG1, kappa, L234A L235A, N297A)
heavy: B2 heavy with R54K, N57Q, N59A, P64E, S105T, S109A, G110L, S111P, S112A
chain: B2 chain
light: B2 light
notes: As m48
relative ECL reaction (to no antigen coating) (human CD154): 13

B8: CE115HA000 Q50A one-arm antibody (antibody, human IgG1, kappa, L234A L235A, N297A, name in Kabat numbering)
heavy: B6 heavy with Q50A
chain: B2 chain
light: B2 light
KD ratio (KD of CE115HA000/KD of altered form) (CD3ε homodimer protein [3]): 22.8

B9: 154R5E11#3 one-arm antibody (antibody, human IgG1, kappa, L234A L235A, N297A)
heavy: B2 heavy with N59A, T60A, P64E, S109A, G110S, S111F, S112Y, T123A
chain: B2 chain
light: B2 light
notes: As m48
relative ECL reaction (to no antigen coating) (human CD154): 1

B10: CE115HA000 S52cK one-arm antibody (antibody, human IgG1, kappa, L234A L235A, N297A, name in Kabat numbering)
heavy: B6 heavy with S55K
chain: B2 chain
light: B2 light
KD ratio (KD of CE115HA000/KD of altered form) (CD3ε homodimer protein [3]): 0.88

B11: 154R5A02#2 one-arm antibody (antibody, human IgG1, kappa, L234A L235A, N297A)
heavy: B2 heavy with V101A
chain: B2 chain
light: B2 light
notes: As m48
relative ECL reaction (to no antigen coating) (human CD154): 106

B12: 154R5F08#3 one-arm antibody (antibody, human IgG1, kappa, L234A L235A, N297A)
heavy: B2 heavy with R54K, N57Q, N59A, P64E, F70Y, S105T, S109A, G110L, S111P, S112A
chain: B2 chain
light: B2 light
notes: As m48
relative ECL reaction (to no antigen coating) (human CD154): 10

B13: CE115HA000 W33L one-arm antibody (antibody, human IgG1, kappa, L234A L235A, N297A, name in Kabat numbering)
heavy: B6 heavy with W33L
chain: B2 chain
light: B2 light
KD ratio (KD of CE115HA000/KD of altered form) (CD3ε homodimer protein [3]): 56600
